Source: US20210238298A1 (ALLIGATOR BIOSCIENCE, published 2021)

Target: T1, Human OX40 (R&D systems, #3358_OX) (human, UniProt P43489 29-216)
T1 construct: Bought; Several catalogue numbers are given for it; also called human OX40 (R&D Systems, 3388-OX); OX40-Fc (R&D systems, #3358_OX); not shown: Fc part
T1 sequence: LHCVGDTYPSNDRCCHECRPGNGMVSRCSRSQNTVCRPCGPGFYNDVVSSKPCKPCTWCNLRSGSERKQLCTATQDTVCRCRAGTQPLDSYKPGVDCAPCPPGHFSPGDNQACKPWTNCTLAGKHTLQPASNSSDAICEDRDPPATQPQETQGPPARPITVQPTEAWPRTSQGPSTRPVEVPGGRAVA
Assay: ELISA: human OX40 coated, goat anti-human kappa light chain HRP, luminescence
Protocol: ELISA plates were coated with human with CTLA-4 (BMS, Orencia) or human OX40 (R&D Systems, 3388-OX) at 0.4 or 0.5 μg/ml, respectively. The ELISA plates were washed with PBST and then blocked with PBST+2% BSA for 1h at room temperature and then washed again with PBST. The bispecific molecules were added in dilution series to the plates and incubated for 1h at room temperature. The ELISA plates were washed, and binding was detected using goat anti human kappa light chain HRP for 1 h at room temperature. SuperSignal Pico Luminescent was used as substrate and luminescence was measured using Fluostar Optima.

EC50 (read off the curve): ~0.2 nM
B1: anti-OX40 antibody 1168/1135 (antibody, V domains shown)
VH: EVQLLESGGGLVQPGGSLRLSCAASGFTFSGSSMSWVRQAPGKGLEWVSSISYYGGYTYYADSVKGRFTISRDNSKNTLYLQMNSLRAEDTAVYYCARYFPHYYFDYWGQGTLVTVSS
VL: not shown
notes: Tested as IgG
